Test results reported in patent US20090148400A1 (IMMATICS BIOTECHNOLOGIES GMHH, published 2009).
Where no end group is shown, it is not given here.

target: T1, recombinant HLA-A*0201 molecule (HLA-A*0201 heavy chain refolded with beta-2 microglobulin) (human); test: remark on making pMHC monomers for in vitro stimulation

| binding result | Binder |
| --- | --- |
| binds | STAPPVHNV [IMA-MUC-001] |

target: T1, recombinant HLA-A*0201 molecule …; test: ELISA-based HLA refolding assay
Protocol: (§1) The amount of de novo-folded HLA/peptide complexes was determined by a quantitative ELISA. Dissociation constants (KD values) were calculated using a standard curve recorded from dilutions of a calibrant HLA/peptide complex.

| binding result | Binder |
| --- | --- |
| binds | KIFDEILVNA [IMA-TOP-001] |
| binds | YVDPVITSI [IMA-MET-001] |
| binds | ALSNLEVTL (also: acetate salt) [IMA-C20-001] |
| binds | ILAPVILYI [IMA-NOX-001] |
| binds | LLGATCMFV [IMA-CCN-001] |
| binds | KLMDLDVEQL [IMA-PCN-001] |

target: T1, recombinant HLA-A*0201 molecule …; test: ELISA-based HLA refolding assay: recombinant HLA-A*0201 heavy chain with b2m and graded doses of peptide
Protocol: as §1

| Kd [nM] | Binder |
| --- | --- |
| 0.001 | ALFVRLLALA [IMA-TGFBI-001] |
| 0.2 | ILDQKINEV [IMA-ODC-001] |
